# Measured values reported in US20080004355A1, “Method for Inhibiting Telomerase Activity and an Agent for Inhibiting the Same” (priority 2004, published 2008).
# Peptide text beside a SMILES is read from it. * marks the point of attachment. Cbz = O=C(OCc1ccccc1)*
# Experiments:
# [1] = test system: TERT; test: Effect of proteasome inhibitor on amount of intracellular TERT (transient TERT expression, Western blotting); type: cell-based, human; details: HEK293T cells transfected with pCIneo-TERT; final concentration 25 μM, 24 hours; compared with DMSO control; Western blotting with anti-TERT antibodies
# Excerpt: NEDD8 is a ubiquitin-like protein, and is known to covalently conjugate to proteins for post translational modification of proteins. Only a cullin family protein, which is one of the subunits of a ubiquitin ligase complex, has been reported as a protein that undergoes NEDD8 conjugation (Non-patent References 5 and 6). […] NEDD8 has a significant homology with ubiquitin at the level of both primary structure and tertiary structure. Therefore, it is plausible that NEDD8 conjugation to proteins works as a signal for proteasome-dependent protein degradation (Non-patent Reference 5), similar to ubiquitination. Thus, it can be reasoned, that there exists a regulatory system for TERT degradation via modification by NEDD8 conjugation to TERT and NEDD8 deconjugation by USP21. Accordingly, an investigation was conducted to determine whether TERT may undergo proteasome-dependent degradation. […]
# 8×10^4 cells/well of HEK293T cells were cultured overnight at 37° C. under the atmosphere of 5% CO2 in 12 well plates, and then transfected with 1 μg of pCIneo-TERT using FuGENE6 Transfection Reagent (Roche). […] Further, β-tubulin, an internal control protein in the cell lysates, was detected by Western blotting using anti-β-tubulin (H-235) antibodies (Santa Cruz). […]
# [2] = target: TERT modified with one or more FLAG-NEDD8 molecules (NEDD8-conjugated TERT)
# [3] = target: T1, N-terminal FLAG-tagged TERT (human, UniProt O14746 1-1132); test: co-expression in HEK293T cells, immunoprecipitation with anti-HA agarose, Western blot with anti-FLAG
# T1 construct: Expressed transiently in HEK293T cells from pCI-FLAG-TERT (human TERT cDNA cloned from human thymus cDNA); present in the cell lysate; also called FLAG-TERT
# Protocol: 4×10⁵ HEK293T cells were cultured overnight at 37° C. under the atmosphere of 5% CO₂ in a dish with 60 mm diameter, and then transfected with 2 μg of pCI-FLAG-TERT alone or in combination with 2 μg of pCI-HA-USP21 or pCI-HA-NEDD8, using FuGENE6 Transfection Reagent (Roche). After 2 days of culturing, the cells were collected and suspended in 500 μl of cell lysis buffer (20 mM Tris-HCl, pH7.4/150 mM NaCl/1 mM ethylenediaminetetraacetic acid (EDTA)/1 mM ethylene glycol-bis-tetraacetic acid (EGTA)/1% Triton X-100/2.5 mM sodium pyrophsphate/1 mM β-glycerophsphate/1 mM Na₃VO₄/protease inhibitor cocktail), and then left to stand on ice for 20 minutes. Subsequently, centrifugation was conducted at 4° C. for 10 minutes at 14,000 rpm to collect the supernatants. The supernatants that were collected were used as cell lysates. […] The resulting supernatant was added to 10 μl of anti-HA antibody-conjugated agarose (anti-HA(Y-11)-agaraose, Santa cruz), and then subjected to overturned mixing at 4° C. overnight, followed by centrifugation to collect the beads. The beads were washed with the cell lysis buffer four times, and then added with 30 μl of 2× SDS sample buffer (125 mM Tris HCl, pH 6.8/4% sodium dodecylsulphate (SDS)/20% glycerol/0.01% bromophenol blue). […]
# T1 sequence (O14746 whole entry): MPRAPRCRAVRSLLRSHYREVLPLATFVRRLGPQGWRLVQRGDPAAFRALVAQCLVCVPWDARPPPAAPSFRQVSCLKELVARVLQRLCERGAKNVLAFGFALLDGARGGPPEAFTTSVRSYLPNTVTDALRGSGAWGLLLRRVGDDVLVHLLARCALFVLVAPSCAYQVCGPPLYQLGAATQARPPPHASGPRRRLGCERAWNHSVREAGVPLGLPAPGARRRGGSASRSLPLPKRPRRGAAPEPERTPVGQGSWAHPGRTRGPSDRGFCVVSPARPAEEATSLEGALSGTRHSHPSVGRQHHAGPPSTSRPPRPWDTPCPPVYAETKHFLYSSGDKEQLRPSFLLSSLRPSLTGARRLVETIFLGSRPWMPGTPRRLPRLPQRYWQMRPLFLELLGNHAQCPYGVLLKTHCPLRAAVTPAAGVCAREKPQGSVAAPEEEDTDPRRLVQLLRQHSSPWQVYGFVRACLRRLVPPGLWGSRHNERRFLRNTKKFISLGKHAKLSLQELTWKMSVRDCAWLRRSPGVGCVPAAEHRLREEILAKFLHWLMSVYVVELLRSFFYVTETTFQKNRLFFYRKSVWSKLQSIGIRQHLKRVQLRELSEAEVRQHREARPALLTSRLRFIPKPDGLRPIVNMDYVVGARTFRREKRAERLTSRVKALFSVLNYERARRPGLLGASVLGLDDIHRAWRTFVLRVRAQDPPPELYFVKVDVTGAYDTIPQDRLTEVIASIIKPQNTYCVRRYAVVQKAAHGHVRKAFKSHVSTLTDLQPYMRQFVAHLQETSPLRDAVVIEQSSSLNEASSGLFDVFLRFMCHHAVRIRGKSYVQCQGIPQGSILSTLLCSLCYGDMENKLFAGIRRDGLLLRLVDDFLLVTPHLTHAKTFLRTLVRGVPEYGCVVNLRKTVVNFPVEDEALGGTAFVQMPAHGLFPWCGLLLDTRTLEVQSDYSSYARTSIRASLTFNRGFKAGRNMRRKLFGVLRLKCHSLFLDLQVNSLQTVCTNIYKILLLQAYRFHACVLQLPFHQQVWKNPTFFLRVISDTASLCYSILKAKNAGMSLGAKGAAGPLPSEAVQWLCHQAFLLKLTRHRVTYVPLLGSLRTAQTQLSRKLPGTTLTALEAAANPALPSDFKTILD
Molecule,amount of TERT in cell lysate [1],"smear-like signals in a high molecular region indicating TERT modified with one or more FLAG-NEDD8 molecules (IP anti-TERT, Western blot anti-FLAG) [2]",binding result [3]
CC(C)C[C@@H](C=O)NC(=O)[C@H](CC(C)C)NC(=O)[C@H](CC(C)C)NC(=O)OCc1ccccc1 [MG132] (Cbz-Leu-Leu-Leu-aldehyde),increased amount of TERT,,
"N-terminal HA-tagged USP21 (enzyme, not shown: small tags and cut ends, Expressed transiently in HEK293T cells from pCI-HA-USP21 (human USP21 cDNA cloned from human kidney cDNA); also called HA-USP21) MPQASEHRLGRTREPPVNIQPRVGSKLPFAPRARSKERRNPASGPNPMLRPLPPRPGLPDERLKKLELGRGRTSGPRPRGPLRADHGVPLPGSPPPTVALPLPSRTNLARSKSVSSGDLRPMGIALGGHRGTGELGAALSRLALRPEPPTLRRSTSLRRLGGFPGPPTLFSIRTEPPASHGSFHMISARSSEPFYSDDKMAHHTLLLGSGHVGLRNLGNTCFLNAVLQCLSSTRPLRDFCLRRDFRQEVPGGGRAQELTEAFADVIGALWHPDSCEAVNPTRFRAVFQKYVPSFSGYSQQDAQEFLKLLMERLHLEINRRGRRAPPILANGPVPSPPRRGGALLEEPELSDDDRANLMWKRYLEREDSKIVDLFVGQLKSCLKCQACGYRSTTFEVFCDLSLPIPKKGFAGGKVSLRDCFNLFTKEEELESENAPVCDRCRQKTRSTKKLTVQRFPRILVLHLNRFSASRGSIKKSSVGVDFPLQRLSLGDFASDKAGSPVYQLYALCNHSGSVHYGHYTALCRCQTGWHVYNDSRVSPVSENQVASSEGYVLFYQLMQEPPRCL",,significantly decreased by co-expression of HA-USP21,binds
N-terminal HA-tagged inactive USP21 (protein) MPQASEHRLGRTREPPVNIQPRVGSKLPFAPRARSKERRNPASGPNPMLRPLPPRPGLPDERLKKLELGRGRTSGPRPRGPLRADHGVPLPGSPPPTVALPLPSRTNLARSKSVSSGDLRPMGIALGGHRGTGELGAALSRLALRPEPPTLRRSTSLRRLGGFPGPPTLFSIRTEPPASHGSFHMISARSSEPFYSDDKMAHHTLLLGSGHVGLRNLGNTAFLNAVLQCLSSTRPLRDFCLRRDFRQEVPGGGRAQELTEAFADVIGALWHPDSCEAVNPTRFRAVFQKYVPSFSGYSQQDAQEFLKLLMERLHLEINRRGRRAPPILANGPVPSPPRRGGALLEEPELSDDDRANLMWKRYLEREDSKIVDLFVGQLKSCLKCQACGYRSTTFEVFCDLSLPIPKKGFAGGKVSLRDCFNLFTKEEELESENAPVCDRCRQKTRSTKKLTVQRFPRILVLHLNRFSASRGSIKKSSVGVDFPLQRLSLGDFASDKAGSPVYQLYALCNHSGSVHYGHYTALCRCQTGWHVYNDSRVSPVSENQVASSEGYVLFYQLMQEPPRCL,,"Such decrease of the signals was not observed when co-expressing the inactive USP21, HA-USP21C221A, instead of HA-USP21",
